Experimental data reported in patent publication US20080187554A1, “Process for producing stable HIV Th-CTL peptides” (Wyeth, priority 2005, published 2008).

Assay: Stability by RP-HPLC for peptide quantification
Assay type: physicochemical
Conditions: lyophilized, 40° C., six-months time point, all three concentrations (FIGS. 6-8)
Excerpt: The stability was also monitored for pre-lyophilization formulations. Stability assays basically include appearance (visual inspection), pH, FLS, peptide fluorescence, and RP-HPLC for peptide quantification.

H-Lys-Gln-Ile-Ile-Asn-Met-Trp-Gln-Glu-Val-Gly-Lys-Ala-Met-Tyr-Ala-Lys-Ala-Phe-Ser-Pro-Glu-Val-Ile-Pro-Met-Phe-OH (H-KQIINMWQEVGKAMYAKAFSPEVIPMF-OH; also: acetate salt) [Peptide A, HIV Th/CTL peptide]
potency change at accelerated temperature: potency decreases
